For 108 variants, screen value results are on record in article PMC12102759.

To fix the notation:
B1: ATXN2 peptide 911-926 (Ataxin-2), 16-mer library wild type / PABPC1 PABC (PABPC1 PABC domain, residues 544-623) (parent)
chain 1: KSTLNPNAKEFNPRSF
chain 2: PLTASMLASAPPQEQKQMLGERLFPLIQAMHPTLAGKITGMLLEIDNSELLHMLESPESLRSKVDEAVAVLQAHQAKEAA
B2: RNF115 peptide 67-82 (E3 ubiquitin-protein ligase RNF115), 16-mer library wild type / MDM2 SWIB (MDM2 SWIB/MDM2 domain, residues 17-125) (parent)
chain 1: TTTHFAELWGHLDHTM
chain 2: SQIPASEQETLVRPKPLLLKLLKSVGAQKDTYTMKEVLFYLGQYIMTKRLYDEKQQHIVYCSNDLLGDLFGVPSFSVKEHRKIYTMIYRNLVVVNQQESSDSGTSVSEN

One experiment covers variants of B1. The experiment is described as follows: proteomic peptide phage display deep mutational scan (ProP-PD DMS): M13 P8 16-mer library selected against immobilised GST-tagged bait for four days (rounds), NGS of the eluted pools per day and pseudo-replica. The following applies: with PABPC1 PABC (PABPC1 PABC domain, residues 544-623); bait immobilised on MaxiSorp plates (10 µg), library pre-cleared on GST, 2 h binding at 4 °C, five washes; one round per day, days 1-4; value from days 2 and 3; scale: average fractional NGS count over selection days 2 and 3.
Regarding chain 1 KSTLNPNSKEFNPRSF [chain 1 A8S], the screen value was determined as 0.

As to chain 1 KSTLNPNAKTFNPRSF [chain 1 E10T], the screen value came out at 0.000321.

In the case of chain 1 KSTLNPNAKRFNPRSF [chain 1 E10R], the screen value came to 0.

Take chain 1 KSTLNPNAKHFNPRSF [chain 1 E10H]: the screen value was found to be 0.000717.

With chain 1 KSTLNPNAKQFNPRSF [chain 1 E10Q], the screen value was 0.

For the variant chain 1 KSTLNPNAKSFNPRSF [chain 1 E10S], the screen value is 0.

For the variant chain 1 KSTLNPNAKDFNPRSF [chain 1 E10D], the screen value came out at 0.

In the case of chain 1 KSTLNPNAKVFNPRSF [chain 1 E10V], the screen value came to 0.000349.

Turning to chain 1 KSTLNPNAKEFNPRSW [chain 1 F16W], the screen value turned out to be 8.6e-05.

With chain 1 KSTLNPNAKEFNPRSA [chain 1 F16A], the screen value was determined as 0.00041.

Turning to chain 1 KSTLNPNAKEFNPRSD [chain 1 F16D], the screen value was determined as 0.000103.

With chain 1 KSTLNPNAKEFNPRSV [chain 1 F16V], the screen value turned out to be 0.000892.

With chain 1 KSTLNPNAKEFNPRSN [chain 1 F16N], the screen value is 0.000241.

For the variant chain 1 KSTLNPNAKEFNPRSH [chain 1 F16H], the screen value turned out to be 0.000158.

As for chain 1 KSTLNPNAKEFNPRSS [chain 1 F16S], the screen value is 0.000134.

For chain 1 KSTLNPNAKEFNPRST [chain 1 F16T], the screen value stood at 0.000108.

Take chain 1 KSTLNPNAKEFNPRSI [chain 1 F16I]: the screen value came out at 0.000285.

With chain 1 KSTLNPNAKEFNPRSY [chain 1 F16Y], the screen value worked out at 0.000515.

In the case of chain 1 KSTLNPNAKEFNPRSL [chain 1 F16L], the screen value was 0.00151.

For chain 1 KSTLNPNAKEFNPRSM [chain 1 F16M], the screen value was 0.000149.

As to chain 1 KSTLNPNAAEFNPRSF [chain 1 K9A], the screen value amounted to 0.000101.

As to chain 1 KSTLNPNAGEFNPRSF [chain 1 K9G], the screen value is 0.000242.

In the case of chain 1 KSTLNPNAPEFNPRSF [chain 1 K9P], the screen value came out at 0.000159.

Regarding chain 1 KSTLNPNADEFNPRSF [chain 1 K9D], the screen value is 0.000277.

Regarding chain 1 KSTLNPNAYEFNPRSF [chain 1 K9Y], the screen value came out at 0.000884.

On to chain 1 KSTLNPNAIEFNPRSF [chain 1 K9I], for which the screen value came to 0.0153.

As to chain 1 KSTLNPNAREFNPRSF [chain 1 K9R], the screen value amounted to 0.00121.

Consider chain 1 KSTLNPNAQEFNPRSF [chain 1 K9Q], for which the screen value was 0.001.

As to chain 1 KSTLNPNAFEFNPRSF [chain 1 K9F], the screen value worked out at 0.000915.

chain 1 KSTLNPNAMEFNPRSF [chain 1 K9M]: the screen value came out at 0.0042.

Take chain 1 KSTLNPNASEFNPRSF [chain 1 K9S]: the screen value was 0.0022.

chain 1 KSTLNPNALEFNPRSF [chain 1 K9L]: the screen value amounted to 0.00284.

As to chain 1 KSTLNPNATEFNPRSF [chain 1 K9T], the screen value was 0.000868.

For chain 1 KSTLNPNAEEFNPRSF [chain 1 K9E], the screen value came out at 0.00113.

chain 1 KSTLNPNANEFNPRSF [chain 1 K9N]: the screen value worked out at 0.00453.

In the case of chain 1 KSTLNPNAHEFNPRSF [chain 1 K9H], the screen value is 0.00168.

As to chain 1 KSTLNPNAKEVNPRSF [chain 1 F11V], the screen value was found to be 0.

Regarding chain 1 KSTLNPNAKEWNPRSF [chain 1 F11W], the screen value turned out to be 0.000158.

As for chain 1 KSTLNPNAKEYNPRSF [chain 1 F11Y], the screen value turned out to be 0.000235.

For chain 1 KSTYNPNAKEFNPRSF [chain 1 L4Y], the screen value was 0.

Take chain 1 KSTMNPNAKEFNPRSF [chain 1 L4M]: the screen value worked out at 0.000137.

For the variant chain 1 KSTFNPNAKEFNPRSF [chain 1 L4F], the screen value turned out to be 0.

With chain 1 KSTLNPAAKEFNPRSF [chain 1 N7A], the screen value amounted to 0.000105.

As for chain 1 KSTLNPDAKEFNPRSF [chain 1 N7D], the screen value worked out at 0.000764.

On to chain 1 KSTLNPEAKEFNPRSF [chain 1 N7E], for which the screen value worked out at 0.000331.

Variants of B2 are the subject of the next experiment. The description is as above. The following applies: with MDM2 SWIB (MDM2 SWIB/MDM2 domain, residues 17-125); bait immobilised on MaxiSorp plates (10 µg), library pre-cleared on GST, 2 h binding at 4 °C, five washes; one round per day, days 1-4; value from days 2 and 3; keep out of graded; scale: average fractional NGS count over selection days 2 and 3.
On to chain 1 T15R, for which the screen value was determined as 5.55e-05.

As to chain 1 T15K, the screen value was 2.45e-05.

In the case of chain 1 T15N, the screen value is 4.79e-05.

For chain 1 T15E, the screen value came to 4.41e-05.

Turning to chain 1 T15P, the screen value is 7.64e-05.

Turning to chain 1 E7W, the screen value came out at 5.37e-05.

For the variant chain 1 E7L, the screen value worked out at 7.08e-05.

For the variant chain 1 E7G, the screen value came to 0.

chain 1 E7S: the screen value is 0.

For chain 1 E7Y, the screen value was found to be 0.

On to chain 1 H4W, for which the screen value was 2.47e-05.

As to chain 1 H4R, the screen value was found to be 1.9e-05.

With chain 1 L8N, the screen value amounted to 0.

chain 1 L8A: the screen value is 0.

On to chain 1 L8P, for which the screen value came out at 1.29e-05.

Regarding chain 1 L8S, the screen value came to 0.

Take chain 1 L8E: the screen value amounted to 4.72e-05.

With chain 1 L8Q, the screen value is 0.

Turning to chain 1 T2W, the screen value stood at 2.98e-05.

Regarding chain 1 T2F, the screen value turned out to be 4.31e-05.

Take chain 1 T2N: the screen value stood at 7.17e-05.

As for chain 1 W9N, the screen value turned out to be 0.

As for chain 1 W9K, the screen value worked out at 4.89e-05.

Turning to chain 1 W9G, the screen value turned out to be 0.000116.

For the variant chain 1 W9D, the screen value was determined as 0.

In the case of chain 1 W9P, the screen value was 3.98e-05.

For chain 1 W9Y, the screen value came to 0.

On to chain 1 W9Q, for which the screen value amounted to 0.

Turning to chain 1 W9T, the screen value came out at 7.05e-05.

Take chain 1 W9A: the screen value amounted to 0.

Turning to chain 1 W9H, the screen value was found to be 0.

For the variant chain 1 W9L, the screen value was 0.

In the case of chain 1 F5K, the screen value came to 0.

Regarding chain 1 F5A, the screen value was found to be 0.

As to chain 1 F5D, the screen value came out at 0.

Turning to chain 1 F5R, the screen value came out at 0.

For the variant chain 1 F5N, the screen value was determined as 0.

As to chain 1 L12K, the screen value worked out at 0.

chain 1 L12F: the screen value came to 0.

Take chain 1 L12T: the screen value turned out to be 0.

For the variant chain 1 L12V, the screen value is 1.9e-05.

chain 1 L12S: the screen value was determined as 0.

With chain 1 H14K, the screen value is 0.000119.

For the variant chain 1 H14D, the screen value is 2.82e-05.

Regarding chain 1 G10K, the screen value turned out to be 0.

For the variant chain 1 G10F, the screen value was determined as 3.49e-05.

Regarding chain 1 G10V, the screen value was 7.22e-05.

In the case of chain 1 G10R, the screen value was 2.89e-05.

On to chain 1 G10E, for which the screen value was 8.15e-05.

With chain 1 G10H, the screen value worked out at 5.57e-05.

On to chain 1 T3N, for which the screen value was found to be 6.02e-05.

With chain 1 D13K, the screen value stood at 0.

In the case of chain 1 A6P, the screen value amounted to 3.8e-05.

Turning to chain 1 A6Y, the screen value came out at 0.000156.

For chain 1 A6N, the screen value came to 0.000134.

As for chain 1 A6R, the screen value stood at 0.

Turning to chain 1 A6F, the screen value came to 0.000296.

With chain 1 A6T, the screen value was found to be 0.00014.

As for chain 1 M16S, the screen value amounted to 0.000115.

For chain 1 M16G, the screen value came out at 4.72e-05.

As for chain 1 M16R, the screen value was determined as 0.000117.

chain 1 M16H: the screen value amounted to 4.26e-05.

In the case of chain 1 M16K, the screen value was determined as 0.
